The test concerns the target T1, human recombinant HLA-B*08:01 (human).
T1 construct: Expressed in E. coli and purified; Assay done by ImmunAware
The test can be described thus: pMHC dissociation at 37 C (b2m on heavy chain); mean half-life grade (+ >2 h, ++ >4 h, +++ >6 h, ++++ >10 h). Here is the method:
The peptide-MHC stability for HLA-B*08:01 peptides was performed by ImmunAware (Copenhagen, Denmark). The data were obtained using a proximity based, homogenous, real-time assay to measure the dissociation of peptides from HLA class I molecules. First human recombinant HLA-B*08:01 and b2m were expressed in E. coli and purified in a series of liquid chromatography based steps (Ferre et al., 2003; Ostergaard et al., 2001). Afterwards, the stability of a peptide-MHC complex (pMHC) can be determined by measuring the amount of b2m associated with the MHC heavy chain over time at 37° C. (Harndahl et al., 2012). The stability of each pMHC, expressed as the half life of b2m associated with the respective heavy chain, was calculated by fitting the data to a one-phase dissociation equation.
For NPNLKTLL, the “mean half-life (T1/2) of peptide-MHC complex” value (shortened to “mean half-life”) lay in the range of 4 to 6 h. Under YKKLRTSSF stands 4 to 6 h; under EPVKKSRL, 6 to 10 h; under LPFLRENDL, 4 to 6 h. As for LPMLKVLNL, the figure is 2 to 4 h; as for HIFLRTTL, 4 to 6 h; as for LSYNKYLQL, 4 to 6 h. As to HAKEKLTAL, the “mean half-life” value fell in the range of 6 to 10 h. As for YVKERSKAM, the “mean half-life” value lay in the range of 6 to 10 h. Under FQKLKLLSL stands 2 to 4 h; under DLKYNALDL, 6 to 10 h; under LLKAEPLAF, 4 to 6 h. As for EAKRHLLQV, the figure is 4 to 6 h.

The record behind these values is patent US20180291082A1 (IMMATICS BIOTECHNOLOGIES, published 2018).
